Results as given in PMC534114.

Biological target: Gab1^F627/659 (Y627F/Y659F) (mouse) (UniProt Q9QYY0)
Sequence of UniProt Q9QYY0 (Q9QYY0 whole entry, stated change not applied): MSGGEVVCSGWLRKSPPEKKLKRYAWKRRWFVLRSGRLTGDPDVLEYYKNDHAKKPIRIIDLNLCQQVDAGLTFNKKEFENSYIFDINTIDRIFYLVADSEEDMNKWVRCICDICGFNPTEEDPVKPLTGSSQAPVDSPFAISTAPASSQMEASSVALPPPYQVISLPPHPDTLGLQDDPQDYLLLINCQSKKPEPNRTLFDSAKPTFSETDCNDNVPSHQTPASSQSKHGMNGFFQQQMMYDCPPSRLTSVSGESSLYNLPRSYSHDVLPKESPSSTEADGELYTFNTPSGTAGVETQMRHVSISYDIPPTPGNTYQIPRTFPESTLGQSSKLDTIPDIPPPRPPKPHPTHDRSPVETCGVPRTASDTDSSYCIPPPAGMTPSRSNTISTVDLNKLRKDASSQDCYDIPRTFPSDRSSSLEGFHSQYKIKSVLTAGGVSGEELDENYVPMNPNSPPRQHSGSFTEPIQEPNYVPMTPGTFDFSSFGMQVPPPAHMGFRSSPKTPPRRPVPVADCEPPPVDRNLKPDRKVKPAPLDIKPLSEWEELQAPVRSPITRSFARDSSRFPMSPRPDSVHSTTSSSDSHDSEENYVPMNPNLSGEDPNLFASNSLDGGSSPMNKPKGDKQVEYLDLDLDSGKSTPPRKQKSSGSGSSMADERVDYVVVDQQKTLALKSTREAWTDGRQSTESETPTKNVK

p85, the regulatory subunit of PI-3 kinase (from UniProt P26450 1-724) (natural protein)
Gab1-associated PI-3 kinase activity in anti-Gab1 immunoprecipitates after EGF treatment (100 ng/ml, five minutes), relative to wild type Gab1: 2 fold
basal PI-3 kinase activity in anti-Gab1 immunoprecipitates (PIP3 production), relative to wild type Gab1: 1.6 fold
